{"source": "patent US20200255846A1", "about": "(INSTITUTE OF GENETICS AND DEVELOPMENTAL BIOLOGY CHINESE …, published 2020)", "molecular_target": "nYFP-OsCaM1-1 (rice calmodulin OsCaM1-1 fused with the N-terminal fragment of YFP) (rice, UniProt Q0JNS6 1-149)", "assay": "BiFC, nYFP-OsCaM1-1 and cYFP-GSE5 coexpressed in N. benthamiana leaves", "source_text": "The coding sequence of GSE5 were amplified by specific primers ycGSE5-F/R, fused with the C-terminal fragment of YFP (cYFP), and then subcloned into the pGWB414 vector (Invitrogen) using in-fusion enzyme (Genebank Biosciences Inc, China). The N-terminal fragment of YFP (nYFP) was amplified from pSY736 using the primers YN-736-F and YN-736-R, fused with the OsCaM1-1 gene, and then subcloned into the pGWB414 vector (Invitrogen) using in-fusion enzyme (Genebank Biosciences Inc, China). nYFP-OsCaM1-1 and cYFP-GSE5 constructs were transformed into Agrobacterium strains GV3101. Transient expression of nYFP-OsCaM1-1 and cYFP-GSE5 in Nicotiana benthamiana leaves and fluorescence observation were conducted as described previously (Wang et al., 2016).", "data": [{"binder": "cYFP-GSE5 (GSE5, GRAIN SIZE ON CHROMOSOME 5, fused with the C-terminal fragment of YFP) (other, BiFC construct in pGWB414, transiently expressed inside Nicotiana benthamiana leaf cells (not on the cell surface); not shown: C-terminal fragment of YFP (cYFP)) MGKAARWFRNMWGGGRKEQKGEAPASGGKRWSFGKSSRDSAEAAAAAAAAAAEASGGNAAIARAAEAAWLRSVYADTEREQSKHAIAVAAATAAAADAAVAAAQAAVAVVRLTSKGRSAPVLAATVAGDTRSLAAAAVRIQTAFRGFLAKKALRALKALVKLQALVRGYLVRRQAAATLQSMQALVRAQATVRAHRSGAGAAANLPHLHHAPFWPRRSLQERCAGDDTRSEHGVAAYSRRLSASIESSSYGYDRSPKIVEVDTGRPKSRSSSSRRASSPLLLDAAGCASGGEDWCANSMSSPLPCYLPGGAPPPRIAVPTSRHFPDYDWCALEKARPATAQSTPRYAHAPPTPTKSVCGGGGGGGIHSSPLNCPNYMSNTQSFEAKVRSQSAPKQRPETGGAGAGGGRKRVPLSEVVVVESRASLSGVGMQRSCNRVQEAFNFKTAVVGRLDRSSESGENDRHAFLQRRW", "values": [{"measurement": "binding result", "value": "binds"}]}]}
